Test results from the DeepSol protein solubility set.

test: soluble on expression in E. coli; label from the status in PepcDB or PDB records

Sequence	soluble on expression in E. coli
MNYGFVKVAAAVPHVKVADCKFNVERIESQIAIAEGKGVQIIVFPEMSITGYTCGDLFGQQILLEEAEMGLMQILNNTRQLDIISIVGMPVVVNSTVINAAVVIQKGKVLGVAAKTYLPNYKEFYEQRWFTSALQLTEDTVRLCGQIVPIGANLLFETSDTTFGIEICEDLWATIPPSSSLALQGAEIIFNMSADNEGIGKHHYLCSLISQQSARCIAGYVFSSCGFGESTTDVVFAGNGLIYENGSLLARSKRFCMEEQLIISEIDVERIRAERRINTTFAASQGNPGDKKAISVATEFVNSKELTLTRDFNSHPFVPQGAELDEHCEEVFSIQIAGLAQRLVHTKAKTAVVGISGGLDSTLALLVCVKTFDKLGLPRKDILGVTMPGFGTTDRTYNNAIDLMKSLGISIREISIQDACIQHFKDIDHDINVHDVTYENSQARERTQILMDIANQTWGMVVGTGDLSELALGWATYNGDHMSMYGVNGSIPKTLVKYLVQWVAENDMDEDAKATLLDIVDTPISPELIPADENLEHHHHHH	soluble
MAEQSDEAVKYYTLEEIQKHNHSKSTWLILHHKVYDLTKFLEEHPGGEEVLREQAGGDATENFEDVGHSTDAREMSKTFIIGELHPDDRPKLNKPPEP	soluble
MGSDKIHHHHHHMKETDNLLRENSHDRDISEIVATITALDHPSPSLLRFTAFVPGSANNPVWAEANVAIRLYLSEEFDDATRVYTVRSFDAATESIVVDVVQHHHESPMMRWSDTVKINDTLVLTGPRPHFVIPEGEQAALFLDDTAIPALAAILDQWPTDLRGKGWVVTDDPAAFDELPSIDGLELNLLAPGSDPTVQPLAQQAYDLENPETYVVWAAGERDEIKSIRRHFRKQVGLEKDAVAVFGYWKYNTTNTQIDAVRKENYMKMLSEGLQLENFDDLSLEI	not soluble
MSLNKVWLTGLLTATASGVFSASTLAATEITWWHAMGGQLGEMVNQLATDFNASQSDYKLTPVYKGSYTETLTTGIAAFRAGQAPNILQVFDAGAATIMSSKGVAKPVQDLMIESGYPFTAQDYIAGVRNFYADNTGKMVGMPFNSSTPVLYYNKDMLASVNAQAPQTYEQLEQVAAKLAEKGQAGFAQSLAPWIMFENFKSRHNLPLSDKQNGYQDLSTKIMFNSDDMLMHVKKLKEWSDKGYYKYYGSDWDANQTPFERGEVAMWMGSSGSFGGLRNRVKFNLGTTYLPYWESVTKNPTHTFIGGAALFALQGHTPAQDKGVAAFFAYLTKPETQMNWHKTTGYVPVTNAAYDLTKQSGYYQENPDAEVGVKQLSLPDGEWTKGYRLGYYPQVREVMHREFDNIFSGRSTVESSLNKVEDESAKLLNRFARTVQEGGSHHHHHH	soluble
KFWRRWAGQSQYKGRWREMVTRSALALKLLTSRKHGGIVAAATFGLPETEAGERNWDYRYTWIRDASFTVYAFMRLGYTDEANAFMGWVRGRLDDCCEQTEKLGILYALDGHAELPEEHLDHLTGYGGAQPVRIGNEAYKQVQLDIYGELMDAVYLANKYGDAISHDGWQHVVRQVDYVCEHWNDRDVGIWEMRGGDQHFLHSRLMCWVALDRALRLAFKRSLSGPFERWNKVREDIQNDIWDNFWNEELGHFVQYKGSRNLDASMLLMPLVRFVGANDPKWLATLDAIEAALVRDGMVFRYRNDDDHDDGLAGEEGAFVACSFWYVECLARAGRVEQAHLEFEQLLRYANPLGLYAEEFDGHARHLGNTPQALSHLALISAASFLDRKLSGEQALWQP	not soluble
MAWWKAWIEQEGVTVASSSHFNPDPDAETLYKAMKGIGTNEQAIIDVLTKRSNTQRQQIAKSFKAQFGKDLTETLKSELSGKFERLIVALMYPPYRYEAKELHDAMKGLGTKEGVIIEILASRTKNQLREIMKAYEEDYGSSLEEDIQADTSGYLERILVCLLQGSRDDVSSFVDPALALQDAQDLYAAGEKIRGTDEMKFITILCTRSATHLLRVFEEYEKIANKSIEDSIKSETHGSLEEAMLTVVKCTQNLHSYFAERLYYAMKGAGTRDGTLIRNIVSRSEIDLNLIKCHFKKMYGKTLSSMIMEDTSGDYKNALLSLVGSDP	soluble
MGSDKIHHHHHHMTLPATITHQEKLLTVDTTAHPFLKALGGHEGTDIFPLFMDPYNGLMVMRASFAPGLTLPLHFHTGTVHMYTISGCWYYTEYPGQKQTAGCYLYEPGGSIHQFNTPRDNEGQTEVIFMLSGCNVNFTQDGTYLGLSDAGVIKNWVDRAIREQDNGLRYIAAAVPTYAA	not soluble
MKIIGFACQWCAYQAADLAGSLKMKYPESIRLLRVPCSGRVNAEFILKALLSGADGVFVAGCPISECHYRSGNRIAKTKVALLKRLLPEFGLESGRVEFLQVSSADARKFVEFAKEFDERIRKLGPNPLRRDER	not soluble
MSLAANMYRVGDYVYFENSSSNPYLIRRIEELNKTASGNVEAKVVCFYRRRDISNTLIMLADKHAKEIEEESETTVEADLTDKQKHQLKHRELFLSRQYESLPATHIRGKCSVALLNETESVLSYLDKEDTFFYSLVYDPSLKTLLADKGEIRVGPRYQADIPEMLLEGESDEREQSKLEVKVWDPNSPLTDRQIDQFLVVARAVGTFARALDCSSSVRQPSLHMSAAAASRDITLFHAMDTLYRHSYDLSSAISVLVPLGGPVLCRDEMEEWSASEASLFEEALEKYGKDFNDIRQDFLPWKSLTSIIEYYYMWKTTDRYVQQKRLKAAEAESKLKQVYIPTYSKPNPNQISTSNGKPGAVNGAVGTTFQPQNPLLGRACESCYATQSHQWYSWGPPNMQCRLCAICWLYWKKYGGLKMPTQSEEEKLSPSPTTEDPRVRSHVSRQAMQGMPVRNTGSPKSAVKTRQAFFLHTTYFTKFARQVCKNTLRLRQAARRPFVAINYAAIRAECKMLLNSEGHHHHHH	not soluble
MGYRIEMATRNPFDIDHKSKYLREAALEANLSHPETTPTMLTCPIDSGFLKDPVITPEGFVYNKSSILKWLETKKEDPQSRKPLTAKDLQPFPELLIIVNRFVETQTNYEKLKNRLVQNARVAARQKEYTEIPDIFLCPISKTLIKTPVITAQGKVYDQEALSNFLIATGNKDETGKKLSIDDVVVFDELYQQIKVYNFYRKREMQKNQIQPSVSSGFGFFSLNFLTSWLWGTEEKKEKTSSDMTY	not soluble
MHHHHHHMNSRILSTGSYLPSHIRTNADLEKMVDTSDEWIVTRSGIRERRIAAEDETVATMGFEAAKNAIEAAQINPQDIELIIVATTSHSHAYPSAACQVQGLLNIDDAISFDLAAACTGFVYALSVADQFIRAGKVKKALVIGSDLNSRKLDETDRSTVVLFGDGAGAVILEASEQEGIISTHLHASADKNNALVLAQPERGIEKSGYIEMQGNETFKLAVRELSNVVEETLLANNLDKKDLDWLVPHQANLRIITATAKKLEMDMSQVVVTLDKYANNSAATVPVALDEAIRDGRIQRGQLLLLEAFGGGWTWGSALVRF	soluble
MSLILKEGEVVFEVPDKLTVTKKDEVFYNPRMKTCRDISIAVIQAFLNLYHKRDKFYIADALAGSGIRGLRYAKELEFNGELKVFLNDINPKAYEKIINNAKLNEIENIDVFNEDANTFLSKHFRFFNVVDIDPFGSPAPYVEQAIRALVTRNGLLCLTATDTAALCGRSKKSCLRKYLAYPLFGRDCHEFALRVLVGYVMRMATKYELALKPVFCHATDHYVRVYLVTDRGAKRADKVFEMLGYVKDVNGIKIIKKFEEGYEKGFAGPLYIGNLYDKALVEEALKIAEKREFSERVLKILNAIKGESAINQVGCYDTHQIGKMLKISVPPMQDIINKLKEMGFNAVVTHYNPKGIKTDATLKNVIEAIYQCTKIREGHHHHHH	soluble
MQSQWCARQQDMIAVYGALAEQCDYALHLGLTEAGMGSKGIVASTAALAVLLFKGIGDTIRVSLTPEPGGDRAREVIVAQEILQTMGLRAFVPLVAACPGCGRTTSTYFQELAESIQIYVREQMVIWREQYEGVENMSLAVMGCVVNGPGESKHADIGISLPGSGETPVAPVFVDGQKTVTLKGDNIAGEFRMIVDEYVRTKYRKKAANALEHHHHHH	not soluble
MSNFLDLQKQRRSIYALGKTVDLSKAELVALIQNAIKQAPSAFNSQTSRALVLFGQDSQDFWNKIAYSELEKVTPAEAFAGTKAKLESFAAGVGTILLFEDQAVVRNLEENFPLYAENFQPWSEQAHGIALYAIWLALAEQNIGMSVQHYNPLVDAQVAEKYDLPTNWKMRAQIPFGSIEAPAGEKEFMADQERFKVFGDLEHHHHHH	soluble
